Test results taken from the supplement of paper PMC11246515.
± gives the standard deviation of the averaged measurements.

Assay: total protein half-life in vivo (active degradation + dilution); higher = more stable protein
[1] = E. coli NCM3722 delta-clpP delta-lon delta-hslV, growth: N-lim chemostat, doubling time 6 h
[2] = E. coli NCM3722 delta-lon, growth: N-lim chemostat, doubling time 6 h
[3] = E. coli NCM3722 delta-smpB, growth: N-lim chemostat, doubling time 6 h
[4] = wild type E. coli NCM3722, growth: C-lim chemostat, doubling time 3 h
[5] = wild type E. coli NCM3722, growth: C-lim chemostat, doubling time 6 h
[6] = wild type E. coli NCM3722, growth: C-lim chemostat, doubling time 12 h
[7] = wild type E. coli NCM3722, growth: N-lim chemostat, doubling time 6 h
[8] = wild type E. coli NCM3722, growth: N-lim chemostat, doubling time 12 h
[9] = wild type E. coli NCM3722, growth: P-lim chemostat, doubling time 6 h
[10] = wild type E. coli NCM3722, growth: P-lim chemostat, doubling time 12 h
[11] = E. coli NCM3722 delta-hslV, growth: N-lim chemostat, doubling time 6 h
[12] = E. coli NCM3722 delta-clpP, growth: N-lim chemostat, doubling time 6 h

Sequence	total protein half-life in vivo [1]	total protein half-life in vivo [2]	total protein half-life in vivo [3]	total protein half-life in vivo [4]	total protein half-life in vivo [5]	total protein half-life in vivo [6]	total protein half-life in vivo [7]	total protein half-life in vivo [8]	total protein half-life in vivo [9]	total protein half-life in vivo [10]	total protein half-life in vivo [11]	total protein half-life in vivo [12]
MMIRERIEEKLRAAFQPVFLEVVDESYRHNVPAGSESHFKVVLVSDRFTGERFLNRHRMIYSTLAEELSTTVHALALHTYTIKEWEGLQDTVFASPPCRGAGSIA [P0ABE2]	3.71 ± 0.15 h	1.81 ± 0.13 h	1.55 h	1.53 ± 0.071 h	2.52 ± 0.14 h	3.32 h	1.99 ± 0.31 h	3.19 h	3.23 h	5.55 ± 0.6 h		
MMKFKKCLLPVAMLASFTLAGCQSNADDHAADVYQTDQLNTKQETKTVNIISILPAKVAVDNSQNKRNAQAFGALIGAVAGGVIGHNVGSGSNSGTTAGAVGGGAVGAAAGSMVNDKTLVEGVSLTYKEGTKVYTSTQVGKECQFTTGLAVVITTTYNETRIQPNTKCPEKS			2.3 h	1.87 h			2.73 h					
MMKKPVVIGLAVVVLAAVVAGGYWWYQSRQDNGLTLYGNVDIRTVNLSFRVGGRVESLAVDEGDAIKAGQVLGELDHKPYEIALMQAKAGVSVAQAQYDLMLAGYRNEEIAQAAAAVKQAQAAYDYAQNFYNRQQGLWKSRTISANDLENARSSRDQAQATLKSAQDKLRQYRSGNREQDIAQAKASLEQAQAQLAQAELNLQDSTLIAPSDGTLLTRAVEPGTVLNEGGTVFTVSLTRPVWVRAYVDERNLDQAQPGRKVLLYTDGRPDKPYHGQIGFVSPTAEFTPKTVETPDLRTDLVYRLRIVVTDADDALRQGMPVTVQFGDEAGHE	6.76 ± 0.87 h	6.47 ± 0.38 h	6.26 ± 0.13 h	3.39 ± 0.38 h		11.2 ± 1.9 h	6.2 ± 0.46 h	13.54 ± 0.12 h	6.02 ± 0.17 h	14.2 ± 0.91 h	6.75 ± 0.14 h	
MMKMRWLSAAVMLTLYTSSSWAFSIDDVAKQAQSLAGKGYETPKSNLPSVFRDMKYADYQQIQFNHDKAYWNNLKTPFKLEFYHQGMYFDTPVKINEVTATAVKRIKYSPDYFTFGDVQHDKDTVKDLGFAGFKVLYPINSKDKNDEIVSMLGASYFRVIGAGQVYGLSARGLAIDTALPSGEEFPRFKEFWIERPKPTDKRLTIYALLDSPRATGAYKFVVMPGRDTVVDVQSKIYLRDKVGKLGVAPLTSMFLFGPNQPSPANNYRPELHDSNGLSIHAGNGEWIWRPLNNPKHLAVSSFSMENPQGFGLLQRGRDFSRFEDLDDRYDLRPSAWVTPKGEWGKGSVELVEIPTNDETNDNIVAYWTPDQLPEPGKEMNFKYTITFSRDEDKLHAPDNAWVQQTRRSTGDVKQSNLIRQPDGTIAFVVDFTGAEMKKLPEDTPVTAQTSIGDNGEIVESTVRYNPVTKGWRLVMRVKVKDAKKTTEMRAALVNADQTLSETWSYQLPANE	6.373 ± 0.046 h	6.34 ± 0.17 h	5.91 ± 0.29 h	3.25 ± 0.11 h	6.12 ± 0.11 h	12.4 ± 0.37 h	6.43 ± 0.094 h	12.6 ± 0.2 h	6.37 ± 0.39 h	12.9 ± 0.14 h	6.94 ± 1 h	
MMKNILAIQSHVVYGHAGNSAAEFPMRRLGANVWPLNTVQFSNHTQYGKWTGCVMPPSHLTEIVQGIAAIDKLHTCDAVLSGYLGSAEQGEHILGIVRQVKAANPQAKYFCDPVMGHPEKGCIVAPGVAEFHVRHGLPASDIIAPNLVELEILCEHAVNNVEEAVLAARELIAQGPQIVLVKHLARAGYSRDRFEMLLVTADEAWHISRPLVDFGMRQPVGVGDVTSGLLLVKLLQGATLQEALEHVTAAVYEIMVTTKAMQEYELQVVAAQDRIAKPEHYFSATKL		1.63 ± 0.039 h	1.73 h	2.89 ± 0.033 h	5 ± 1.8 h	5.86 ± 0.53 h	1.832 ± 0.0067 h	2.45 h	4.49 ± 0.085 h	8.09 ± 0.6 h	2.01 ± 0.45 h	
MMKRNILAVIVPALLVAGTANAAEIYNKDGNKVDLYGKAVGLHYFSKGNGENSYGGNGDMTYARLGFKGETQINSDLTGYGQWEYNFQGNNSEGADAQTGNKTRLAFAGLKYADVGSFDYGRNYGVVYDALGYTDMLPEFGGDTAYSDDFFVGRVGGVATYRNSNFFGLVDGLNFAVQYLGKNERDTARRSNGDGVGGSISYEYEGFGIVGAYGAADRTNLQEAQPLGNGKKAEQWATGLKYDANNIYLAANYGETRNATPITNKFTNTSGFANKTQDVLLVAQYQFDFGLRPSIAYTKSKAKDVEGIGDVDLVNYFEVGATYYFNKNMSTYVDYIINQIDSDNKLGVGSDDTVAVGIVYQF	5.54 ± 0.65 h	6.91 ± 0.67 h	5.865 ± 0.041 h	3.19 ± 0.046 h	6.83 ± 0.66 h	11.12 ± 0.049 h	5.95 ± 0.26 h	10.9 ± 0.82 h	6.15 ± 0.23 h		5.98 ± 0.073 h	6.23 ± 0.86 h
MMKTMRIAAIPGDGIGKEVLPEGIRVLQAAAERWGFALSFEQMEWASCEYYSHHGKMMPDDWHEQLSRFDAIYFGAVGWPDTVPDHISLWGSLLKFRREFDQYVNLRPVRLFPGVPCPLAGKQPGDIDFYVVRENTEGEYSSLGGRVNEGTEHEVVIQESVFTRRGVDRILRYAFELAQSRPRKTLTSATKSNGLAISMPYWDERVEAMAENYPEIRWDKQHIDILCARFVMQPERFDVVVASNLFGDILSDLGPACTGTIGIAPSANLNPERTFPSLFEPVHGSAPDIYGKNIANPIATIWAGAMMLDFLGNGDERFQQAHNGILAAIEEVIAHGPKTPDMKGNATTPQVADAICKIILR	4.1 ± 1.1 h	4.83 ± 2.4 h	2.68 ± 0.02 h	2.6 ± 0.4 h	4.42 ± 0.51 h	7.5 ± 1.2 h	2.6337 ± 0.002 h	3.89 ± 0.11 h	4.47 ± 0.67 h	11.1 ± 0.13 h	2.66 ± 0.067 h	2.64 ± 0.46 h
